Measurements: patent publication US20240124553A1

Legend:
Assay in all cases: flow cytometry, transfected 293T cells
[1] = biological target: CHIKV E2-E1 envelope glycoproteins (strain S27), E2 mutant M70A (chikungunya virus strain S27) (UniProt Q8JUX5)
[2] = biological target: CHIKV E2-E1 envelope glycoproteins (strain S27), E2 mutant W64A (chikungunya virus strain S27) (UniProt Q8JUX5)
[3] = biological target: CHIKV E2-E1 envelope glycoproteins (strain S27), E2 mutant D63A (chikungunya virus strain S27) (UniProt Q8JUX5)
[4] = biological target: CHIKV E2-E1 envelope glycoproteins (strain S27), E2 mutant H130A (chikungunya virus strain S27) (UniProt Q8JUX5)
[5] = biological target: CHIKV E2-E1 envelope glycoproteins (strain S27), E2 mutant I101A (chikungunya virus strain S27) (UniProt Q8JUX5)
[6] = biological target: CHIKV E2-E1 envelope glycoproteins (strain S27), E2 mutant R86A (chikungunya virus strain S27) (UniProt Q8JUX5)
[7] = biological target: CHIKV E2-E1 envelope glycoproteins (strain S27), E2 mutant L83A (chikungunya virus strain S27) (UniProt Q8JUX5)
[8] = biological target: CHIKV E2-E1 envelope glycoproteins (strain S27), E2 mutant R119A (chikungunya virus strain S27) (UniProt Q8JUX5)
[9] = biological target: CHIKV E2-E1 envelope glycoproteins (strain S27), E2 mutant L111A (chikungunya virus strain S27) (UniProt Q8JUX5)
[10] = biological target: CHIKV E2-E1 envelope glycoproteins (strain S27), E2 mutant A89S (chikungunya virus strain S27) (UniProt Q8JUX5)
[11] = biological target: CHIKV E2-E1 envelope glycoproteins (strain S27), E2 mutant V50A (chikungunya virus strain S27) (UniProt Q8JUX5)
[12] = biological target: CHIKV E2-E1 envelope glycoproteins (strain S27), E2 mutant T65A (chikungunya virus strain S27) (UniProt Q8JUX5)
[13] = biological target: CHIKV E2-E1 envelope glycoproteins (strain S27), E2 mutant T94A (chikungunya virus strain S27) (UniProt Q8JUX5)
[14] = biological target: CHIKV E2-E1 envelope glycoproteins (strain S27), E2 mutant G108A (chikungunya virus strain S27) (UniProt Q8JUX5)
[15] = biological target: CHIKV E2-E1 envelope glycoproteins (strain S27), E2 mutant G114A (chikungunya virus strain S27) (UniProt Q8JUX5)
[16] = biological target: CHIKV E2-E1 envelope glycoproteins (strain S27), E2 mutant D117A (chikungunya virus strain S27) (UniProt Q8JUX5)
[17] = biological target: CHIKV E2-E1 envelope glycoproteins (strain S27), E2 mutant G55A (chikungunya virus strain S27) (UniProt Q8JUX5)
[18] = biological target: CHIKV E2-E1 envelope glycoproteins (strain S27), E2 mutant I37A (chikungunya virus strain S27) (UniProt Q8JUX5)
[19] = biological target: CHIKV E2-E1 envelope glycoproteins (strain S27), E2 mutant Q49A (chikungunya virus strain S27) (UniProt Q8JUX5)
[20] = biological target: CHIKV E2-E1 envelope glycoproteins (strain S27), E2 mutant V32A (chikungunya virus strain S27) (UniProt Q8JUX5)
[21] = biological target: CHIKV E2-E1 envelope glycoproteins (strain S27), E2 mutant I48A (chikungunya virus strain S27) (UniProt Q8JUX5)
[22] = biological target: CHIKV E2-E1 envelope glycoproteins (strain S27), E2 mutant T116A (chikungunya virus strain S27) (UniProt Q8JUX5)
[23] = biological target: CHIKV E2-E1 envelope glycoproteins (strain S27), E2 mutant L34A (chikungunya virus strain S27) (UniProt Q8JUX5)
[24] = biological target: CHIKV E2-E1 envelope glycoproteins (strain S27), E2 mutant D59A (chikungunya virus strain S27) (UniProt Q8JUX5)
[25] = biological target: CHIKV E2-E1 envelope glycoproteins (strain S27), E2 mutant T110A (chikungunya virus strain S27) (UniProt Q8JUX5)
[26] = biological target: CHIKV E2-E1 envelope glycoproteins (strain S27), E2 mutant T45A (chikungunya virus strain S27) (UniProt Q8JUX5)
[27] = biological target: CHIKV E2-E1 envelope glycoproteins (strain S27), E2 mutant S88A (chikungunya virus strain S27) (UniProt Q8JUX5)
[28] = biological target: CHIKV E2-E1 envelope glycoproteins (strain S27), E2 mutant N72A (chikungunya virus strain S27) (UniProt Q8JUX5)
[29] = biological target: CHIKV E2-E1 envelope glycoproteins (strain S27), E2 mutant C125A (chikungunya virus strain S27) (UniProt Q8JUX5)
[30] = biological target: CHIKV E2-E1 envelope glycoproteins (strain S27), E2 mutant C105A (chikungunya virus strain S27) (UniProt Q8JUX5)
[31] = biological target: CHIKV E2-E1 envelope glycoproteins (strain S27), E2 mutant I74A (chikungunya virus strain S27) (UniProt Q8JUX5)
[32] = biological target: CHIKV E2-E1 envelope glycoproteins (strain S27), E2 mutant E35A (chikungunya virus strain S27) (UniProt Q8JUX5)
[33] = biological target: CHIKV E2-E1 envelope glycoproteins (strain S27), E2 mutant I54A (chikungunya virus strain S27) (UniProt Q8JUX5)

Work on CHIKV mAb C9 (antibody) yielded a Binding Reactivity (% WT) [1] of 81 % WT, a Binding Reactivity (% WT) [2] of 60.6 % WT and a Binding Reactivity (% WT) [3] of 71.8 % WT. For the same substance, the Binding Reactivity (% WT) [4] was 106 % WT, the Binding Reactivity (% WT) [5] was 26.6 % WT and the Binding Reactivity (% WT) [6] was 121 % WT. It also gave a Binding Reactivity (% WT) [7] of 18.7 % WT, a Binding Reactivity (% WT) [8] of 88 % WT and a Binding Reactivity (% WT) [9] of 23.2 % WT. It also gave a Binding Reactivity (% WT) [10] of 109 % WT, a Binding Reactivity (% WT) [11] of 76.7 % WT and a Binding Reactivity (% WT) [12] of 71.1 % WT. It also gave a Binding Reactivity (% WT) [13] of 116 % WT, a Binding Reactivity (% WT) [14] of 71.9 % WT and a Binding Reactivity (% WT) [15] of 67.5 % WT. The Binding Reactivity (% WT) [16] was 74.4 % WT, the Binding Reactivity (% WT) [17] was 75.9 % WT and the Binding Reactivity (% WT) [18] was 30.4 % WT. For the same substance, the Binding Reactivity (% WT) [19] was 47 % WT, the Binding Reactivity (% WT) [20] was 44 % WT and the Binding Reactivity (% WT) [21] was 10.7 % WT. It also gave a Binding Reactivity (% WT) [22] of 98.2 % WT, a Binding Reactivity (% WT) [23] of 34.4 % WT and a Binding Reactivity (% WT) [24] of 71.8 % WT. The Binding Reactivity (% WT) [25] was 88 % WT, the Binding Reactivity (% WT) [26] was 71.7 % WT and the Binding Reactivity (% WT) [27] was 122 % WT. It also gave a Binding Reactivity (% WT) [28] of 112 % WT, a Binding Reactivity (% WT) [29] of 0 % WT and a Binding Reactivity (% WT) [30] of -0.2 % WT. It also gave a Binding Reactivity (% WT) [31] of 108 % WT, a Binding Reactivity (% WT) [32] of 22.2 % WT and a Binding Reactivity (% WT) [33] of 110 % WT.
With CHIKV mAb CHKV-88 (antibody) the Binding Reactivity (% WT) [1] was 93.7 % WT, the Binding Reactivity (% WT) [2] was 126 % WT and the Binding Reactivity (% WT) [3] was 85 % WT. For the same substance, the Binding Reactivity (% WT) [4] was 110 % WT, the Binding Reactivity (% WT) [5] was 44.5 % WT and the Binding Reactivity (% WT) [6] was 110 % WT. The Binding Reactivity (% WT) [7] was 38.8 % WT, the Binding Reactivity (% WT) [8] was 99.5 % WT and the Binding Reactivity (% WT) [9] was 50.9 % WT. It also gave a Binding Reactivity (% WT) [10] of 118 % WT, a Binding Reactivity (% WT) [11] of 78.6 % WT and a Binding Reactivity (% WT) [12] of 87.9 % WT. For the same substance, the Binding Reactivity (% WT) [13] was 109 % WT, the Binding Reactivity (% WT) [14] was 71.1 % WT and the Binding Reactivity (% WT) [15] was 65.3 % WT. The Binding Reactivity (% WT) [16] was 103 % WT, the Binding Reactivity (% WT) [17] was 111 % WT and the Binding Reactivity (% WT) [18] was 63.2 % WT. For the same substance, the Binding Reactivity (% WT) [19] was 87.1 % WT, the Binding Reactivity (% WT) [20] was 84.8 % WT and the Binding Reactivity (% WT) [21] was 39.6 % WT. The Binding Reactivity (% WT) [22] was 110 % WT, the Binding Reactivity (% WT) [23] was 58.3 % WT and the Binding Reactivity (% WT) [24] was 86.1 % WT. It also gave a Binding Reactivity (% WT) [25] of 107 % WT, a Binding Reactivity (% WT) [26] of 85.7 % WT and a Binding Reactivity (% WT) [27] of 111 % WT. It also gave a Binding Reactivity (% WT) [28] of 109 % WT, a Binding Reactivity (% WT) [29] of 3.7 % WT and a Binding Reactivity (% WT) [30] of -0.1 % WT. It also gave a Binding Reactivity (% WT) [31] of 106 % WT, a Binding Reactivity (% WT) [32] of 55.9 % WT and a Binding Reactivity (% WT) [33] of 116 % WT.
With CHIKV mAb IM-CKV063 (antibody) the Binding Reactivity (% WT) [1] was 81.7 % WT, the Binding Reactivity (% WT) [2] was 69.1 % WT and the Binding Reactivity (% WT) [3] was 65.8 % WT. The Binding Reactivity (% WT) [4] was 91 % WT, the Binding Reactivity (% WT) [5] was 19.8 % WT and the Binding Reactivity (% WT) [6] was 127 % WT. The Binding Reactivity (% WT) [7] was 18.7 % WT, the Binding Reactivity (% WT) [8] was 72 % WT and the Binding Reactivity (% WT) [9] was 20.3 % WT. The Binding Reactivity (% WT) [10] was 84 % WT, the Binding Reactivity (% WT) [11] was 64.1 % WT and the Binding Reactivity (% WT) [12] was 70.1 % WT. The Binding Reactivity (% WT) [13] was 95.5 % WT, the Binding Reactivity (% WT) [14] was 59 % WT and the Binding Reactivity (% WT) [15] was 58.4 % WT. It also gave a Binding Reactivity (% WT) [16] of 74.2 % WT, a Binding Reactivity (% WT) [17] of 83.3 % WT and a Binding Reactivity (% WT) [18] of 26 % WT. The Binding Reactivity (% WT) [19] was 55.4 % WT, the Binding Reactivity (% WT) [20] was 44.1 % WT and the Binding Reactivity (% WT) [21] was 7.9 % WT. For the same substance, the Binding Reactivity (% WT) [22] was 104 % WT, the Binding Reactivity (% WT) [23] was 29.4 % WT and the Binding Reactivity (% WT) [24] was 81.1 % WT. For the same substance, the Binding Reactivity (% WT) [25] was 88.1 % WT, the Binding Reactivity (% WT) [26] was 62.1 % WT and the Binding Reactivity (% WT) [27] was 89.5 % WT. For the same substance, the Binding Reactivity (% WT) [28] was 114 % WT, the Binding Reactivity (% WT) [29] was 0.5 % WT and the Binding Reactivity (% WT) [30] was 0.4 % WT. The Binding Reactivity (% WT) [31] was 106 % WT, the Binding Reactivity (% WT) [32] was 19.1 % WT and the Binding Reactivity (% WT) [33] was 102 % WT.
